We go through 6 sequences from the supplement of paper PMC11246515.

± gives the standard deviation of the averaged measurements.

This data set can be described thus: total protein half-life in vivo (active degradation + dilution); higher = more stable protein.
[1] abbreviates: E. coli NCM3722 delta-clpP delta-lon delta-hslV, growth: N-lim chemostat, doubling time 6 h.
Where [2] appears, read: E. coli NCM3722 delta-clpP, growth: N-lim chemostat, doubling time 6 h.
Setting [3] is: E. coli NCM3722 delta-hslV, growth: N-lim chemostat, doubling time 6 h.
Setting [4] is: E. coli NCM3722 delta-lon, growth: N-lim chemostat, doubling time 6 h.
Setting [5] is: E. coli NCM3722 delta-smpB, growth: N-lim chemostat, doubling time 6 h.
The mark [6] stands for this setting: wild type E. coli NCM3722, growth: C-lim chemostat, doubling time 3 h.
Where [7] appears, read: wild type E. coli NCM3722, growth: C-lim chemostat, doubling time 6 h.
The mark [8] stands for this setting: wild type E. coli NCM3722, growth: C-lim chemostat, doubling time 12 h.
Setting [9] is: wild type E. coli NCM3722, growth: N-lim chemostat, doubling time 6 h.
Where [10] appears, read: wild type E. coli NCM3722, growth: N-lim chemostat, doubling time 12 h.
Where [11] appears, read: wild type E. coli NCM3722, growth: P-lim chemostat, doubling time 6 h.
The mark [12] stands for this setting: wild type E. coli NCM3722, growth: P-lim chemostat, doubling time 12 h.

For the sequence “MHDANIRVAIAGAGGRMGRQLIQAALALEGVQLGAALEREGSSLLGSDAGELAGAGKTGVTVQSSLDAVKDDFDVFIDFTRPEGTLNHLAFCRQHGKGMVIGTTGFDEAGKQAIRDAAADIAIVFAANFSVGVNVMLKLLEKAAKVMGDYTDIEIIEAHHRHKVDAPSGTALAMGEAIAHALDKDLKDCAVYSREGHTGERVPGTIGFATVRAGDIVGEHTAMFADIGERLEITHKASSRMTFANGAVRSALWLSGKESGLFDMRDVLDLNNL”, the “total protein half-life in vivo” value was determined as 5.49 ± 0.1 h under setting [1]; 4.89 ± 0.007 h under setting [2]; 5.04 ± 0.21 h under setting [3]; 5.38 ± 0.62 h under setting [4]; 4.76 ± 0.23 h under setting [5]; 2.91 ± 0.068 h under setting [6]. For the same sequence, the “total protein half-life in vivo” value runs as follows: under setting [7], 6.1 ± 0.19 h; under setting [8], 12 ± 0.68 h; under setting [9], 5.092 ± 0.023 h; under setting [10], 9.28 ± 0.75 h; under setting [11], 5.71 ± 0.34 h; under setting [12], 12.5 ± 1.2 h.

Turning to “MDSHTLIQALIYLGSAALIVPIAVRLGLGSVLGYLIAGCIIGPWGLRLVTDAESILHFAEIGVVLMLFIIGLELDPQRLWKLRAAVFGCGALQMVICGGLLGLFCMLLGLRWQVAELIGMTLALSSTAIAMQAMNERNLMVTQMGRSAFAVLLFQDIAAIPLVAMIPLLATSSASTTMGAFALSALKVAGALVLVVLLGRYVTRPALRFVARSGLREVFSAVALFLVFGFGLLLEEVGLSMAMGAFLAGVLLASSEYRHALESDIEPFKGLLLGLFFIGVGMSIDFGTLLENPLRIVILLLGFLIIKIAMLWLIARPLQVPNKQRRWFAVLLGQGSEFAFVVFGAAQMANVLEPEWAKSLTLAVALSMAATPILLVILNRLEQSSTEEAREADEIDEEQPRVIIAGFGRFGQITGRLLLSSGVKMVVLDHDPDHIETLRKFGMKVFYGDATRMDLLESAGAAKAEVLINAIDDPQTNLQLTEMVKEHFPHLQIIARARDVDHYIRLRQAGVEKPERETFEGALKTGRLALESLGLGPYEARERADVFRRFNIQMVEEMAMVENDTKARAAVYKRTSAMLSEIITEDREHLSLIQRHGWQGTEEGKHTGNMADEPETKPSS”, the “total protein half-life in vivo” value under setting [2] turned out to be 7.26 ± 1 h; the “total protein half-life in vivo” value under setting [3] stood at 6.68 ± 1.4 h; the “total protein half-life in vivo” value under setting [4] was 6.07 ± 0.42 h; the “total protein half-life in vivo” value under setting [5] stood at 6.12 ± 0.22 h; the “total protein half-life in vivo” value under setting [6] was determined as 3.62 ± 0.14 h; the “total protein half-life in vivo” value under setting [7] stood at 6.07 ± 0.45 h. In addition, the “total protein half-life in vivo” value is 13.1 ± 0.2 h under setting [8]; 6.452 ± 0.033 h under setting [9]; 11.9 ± 1.1 h under setting [10]; 6.64 ± 0.37 h under setting [11]; 12.2 ± 1.2 h under setting [12].

With “MNKTLIAAAVAGIVLLASNAQAQTVPEGYQLQQVLMMSRHNLRAPLANNGSVLEQSTPNKWPEWDVPGGQLTTKGGVLEVYMGHYMREWLAEQGMVKSGECPPPYTVYAYANSLQRTVATAQFFITGAFPGCDIPVHHQEKMGTMDPTFNPVITDDSAAFSEQAVAAMEKELSKLQLTDSYQLLEKIVNYKDSPACKEKQQCSLVDGKNTFSAKYQQEPGVSGPLKVGNSLVDAFTLQYYEGFPMDQVAWGEIKSDQQWKVLSKLKNGYQDSLFTSPEVARNVAKPLVSYIDKALVTDRTSAPKITVLVGHDSNIASLLTALDFKPYQLHDQNERTPIGGKIVFQRWHDSKANRDLMKIEYVYQSAEQLRNADALTLQAPAQRVTLELSGCPIDADGFCPMDKFDSVLNEAVK”, the “total protein half-life in vivo” value runs as follows: under setting [1], 5.71 ± 0.47 h; under setting [3], 6.81 ± 0.17 h; under setting [4], 6.9 ± 0.04 h; under setting [5], 5.96 ± 0.12 h; under setting [6], 3.51 ± 0.45 h; under setting [7], 6.07 ± 0.17 h. The “total protein half-life in vivo” value under setting [8] was 12 ± 1.7 h; the “total protein half-life in vivo” value under setting [9] was 6.05 ± 0.63 h; the “total protein half-life in vivo” value under setting [10] is 11.1 ± 1.5 h; the “total protein half-life in vivo” value under setting [11] turned out to be 6.4 ± 1.7 h; the “total protein half-life in vivo” value under setting [12] came to 12.3 ± 1.5 h.

On to “MKNTELEQLINEKLNSAAISDYAPNGLQVEGKETVQKIVTGVTASQALLDEAVRLGADAVIVHHGYFWKGESPVIRGMKRNRLKTLLANDINLYGWHLPLDAHPELGNNAQLAALLGITVMGEIEPLVPWGELTMPVPGLELASWIEARLGRKPLWCGDTGPEVVQRVAWCTGGGQSFIDSAARFGVDAFITGEVSEQTIHSAREQGLHFYAAGHHATERGGIRALSEWLNENTDLDVTFIDIPNPA [P0AFP6]”, for which the “total protein half-life in vivo” value by setting is: under setting [1], 4.31 ± 0.15 h; under setting [2], 3.736 ± 0.0077 h; under setting [3], 3.9 ± 0.38 h; under setting [4], 4.42 ± 0.65 h; under setting [5], 3.7 ± 0.28 h; under setting [6], 2.86 ± 0.27 h. In addition, the “total protein half-life in vivo” value under setting [7] was found to be 6.13 ± 0.52 h; the “total protein half-life in vivo” value under setting [8] was found to be 10.3 ± 0.29 h; the “total protein half-life in vivo” value under setting [9] turned out to be 3.66 ± 0.23 h; the “total protein half-life in vivo” value under setting [10] worked out at 5.74 ± 0.75 h; the “total protein half-life in vivo” value under setting [11] was found to be 5.26 ± 0.41 h; the “total protein half-life in vivo” value under setting [12] is 11.2 ± 1.2 h.

Turning to “MNKSRQKELTRWLKQQSVISQRWLNISRLLGFVSGILIIAQAWFMARILQHMIMENIPREALLLPFTLLVLTFVLRAWVVWLRERVGYHAGQHIRFAIRRQVLDRLQQAGPAWIQGKPAGSWATLVLEQIDDMHDYYARYLPQMALAVSVPLLIVVAIFPSNWAAALILLGTAPLIPLFMALVGMGAADANRRNFLALARLSGHFLDRLRGMETLRIFGRGEAEIESIRSASEDFRQRTMEVLRLAFLSSGILEFFTSLSIALVAVYFGFSYLGELDFGHYDTGVTLAAGFLALILAPEFFQPLRDLGTFYHAKAQAVGAADSLKTFMETPLAHPQRGEAELASTDPVTIEAEELFITSPEGKTLAGPLNFTLPAGQRAVLVGRSGSGKSSLLNALSGFLSYQGSLRINGIELRDLSPESWRKHLSWVGQNPQLPAATLRDNVLLARPDASEQELQAALDNAWVSEFLPLLPQGVDTPVGDQAARLSVGQAQRVAVARALLNPCSLLLLDEPAASLDAHSEQRVMEALNAASLRQTTLMVTHQLEDLADWDVIWVMQDGRIIEQGRYAELSVAGGPFATLLAHRQEEI”, the “total protein half-life in vivo” value under setting [2] amounted to 6.56 ± 0.17 h; the “total protein half-life in vivo” value under setting [3] came to 5.94 ± 0.14 h; the “total protein half-life in vivo” value under setting [4] is 6.1322 ± 0.0016 h; the “total protein half-life in vivo” value under setting [5] stood at 5.95 ± 0.69 h; the “total protein half-life in vivo” value under setting [6] was 3.54 ± 0.42 h; the “total protein half-life in vivo” value under setting [7] is 5.88 ± 0.21 h. The “total protein half-life in vivo” value is, setting by setting: under setting [9], 6.42 ± 0.35 h; under setting [10], 12.7 ± 1.1 h; under setting [11], 6.33 ± 0.11 h; under setting [12], 11.8 ± 0.91 h.

Consider “MSDSQTLVVKLGTSVLTGGSRRLNRAHIVELVRQCAQLHAAGHRIVIVTSGAIAAGREHLGYPELPATIASKQLLAAVGQSRLIQLWEQLFSIYGIHVGQMLLTRADMEDRERFLNARDTLRALLDNNIVPVINENDAVATAEIKVGDNDNLSALAAILAGADKLLLLTDQKGLYTADPRSNPQAELIKDVYGIDDALRAIAGDSVSGLGTGGMSTKLQAADVACRAGIDTIIAAGSKPGVIGDVMEGISVGTLFHAQATPLENRKRWIFGAPPAGEITVDEGATAAILERGSSLLPKGIKSVTGNFSRGEVIRICNLEGRDIAHGVSRYNSDALRRIAGHHSQEIDAILGYEYGPVAVHRDDMITR [P0A7B5]”, for which the “total protein half-life in vivo” value under setting [1] turned out to be 3.94 ± 0.49 h; the “total protein half-life in vivo” value under setting [2] is 3.94 ± 0.43 h; the “total protein half-life in vivo” value under setting [3] came to 4.25 ± 0.076 h; the “total protein half-life in vivo” value under setting [4] was found to be 5.654 ± 0.012 h; the “total protein half-life in vivo” value under setting [5] was 3.57 ± 0.05 h; the “total protein half-life in vivo” value under setting [6] stood at 2.98 ± 0.13 h. The “total protein half-life in vivo” value reads like this: under setting [7], 5.35 ± 0.17 h; under setting [8], 9.09 ± 0.098 h; under setting [9], 4.4 ± 0.31 h; under setting [10], 9.48 ± 1.3 h; under setting [11], 5.69 ± 0.71 h; under setting [12], 11.7 ± 0.25 h.
